± gives the uncertainty stated by the source.
B1: library; numbered along this chain (parent)
chain: MEVVDPQQLGMFTEGELMSVGMDTFIHRIDSTEVIYQPRRKRAKLIGKYLMGDLLGEGSYGKVKEVLDSETLCRRAVKILKKKKLRRIPNGEANVKKEIQLLRRLRHKNVIQLVDVLYNEEKQKMYMVMEYCVCGMQEMLDSVPEKRFPVCQAHGYFCQLIDGLEYLHSQGIVHKDIKPGNLLLTTGGTLKISDLGVAEALHPFAADDTCRTSQGSPAFQPPEIANGLDTFSGFKVDIWSAGVTLYNITTGLYPFEGDNIYKLFENIGKGSYAIPGDCGPPLSDLLKGMLEYEPAKRFSIRQIRQHSWFRKKHPPAEAPVPIPPSPDTKDRWRSMTVVPYLEDLHGADEDEDLFDIEDDIIYTQDFTVPGQVPEEEASHNGQRRGLPKAVCMNGTEAAQLSTKSRAEGRAPNPARKACSASSKIRRLSACKQQ

Variants of: B1
Experiment: STK11 functional score (HeLa growth suppression), rescaled enrichment; synonymous median = 1, nonsense median = 0 (normalised score)
Conditions: with HeLa; variant type: missense
In short: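 HeLa cells carrying an AAVS1 landing pad received codon-optimised STK11 libraries made by codon randomisation (POPCode), integrated by Bxb1, with three regions each transfected three times. Integrants that were BFP-negative and mCherry-positive were sorted by FACS 4–5 days after electroporation and then grown for about two weeks. Tiled amplicons from gDNA were sequenced on NextSeq at ~2 million reads per tile. The functional score is a wild-type-corrected log ratio of post- to pre-selection counts, rescaled to the synonymous and nonsense medians, merged across codons and replicate transfections, and given a bootstrapped error.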

Going from MEVVDPQQLGMFTEGELMSVGMDTFIHRIDSTEVIYQPRRKRAKLIGKYLMGDLLGEGSYGKVKEVLDSETLCRRAVKILKKKKLRRIPNGEANVKKEIQLLRRLRHKNVIQLVDVLYNEEKQKMYMVMEYCVCGMQEMLDSVPEKRFPVCQAHGYFCMLIDGLEYLHSQGIVHKDIKPGNLLLTTGGTLKISDLGVAEALHPFAADDTCRTSQGSPAFQPPEIANGLDTFSGFKVDIWSAGVTLYNITTGLYPFEGDNIYKLFENIGKGSYAIPGDCGPPLSDLLKGMLEYEPAKRFSIRQIRQHSWFRKKHPPAEAPVPIPPSPDTKDRWRSMTVVPYLEDLHGADEDEDLFDIEDDIIYTQDFTVPGQVPEEEASHNGQRRGLPKAVCMNGTEAAQLSTKSRAEGRAPNPARKACSASSKIRRLSACKQQ [Q159M] to MEVVDPQQLGMFTEGELMSVGMDTFIHRIDSTEVIYQPRRKRAKLIGKYLMGDLLGEGSYGKVKEVLDSETLCRRAVKILKKKKLRRIPNGEANVKKEIQLLRRLRHKNVIQLVDVLYNEEKQKMYMVMEYCVCGMQEMLDSVPEKRFPVCQAHGYFCHLIDGLEYLHSQGIVHKDIKPGNLLLTTGGTLKISDLGVAEALHPFAADDTCRTSQGSPAFQPPEIANGLDTFSGFKVDIWSAGVTLYNITTGLYPFEGDNIYKLFENIGKGSYAIPGDCGPPLSDLLKGMLEYEPAKRFSIRQIRQHSWFRKKHPPAEAPVPIPPSPDTKDRWRSMTVVPYLEDLHGADEDEDLFDIEDDIIYTQDFTVPGQVPEEEASHNGQRRGLPKAVCMNGTEAAQLSTKSRAEGRAPNPARKACSASSKIRRLSACKQQ [Q159H], the STK11 functional score falls from 1.14 ± 0.096 to 0.00983 ± 0.14.

MEVVDPQQLGMFTEGELMSVGMDTFIHRIDSTEVIYQPRRKRAKLIGKYLMGDLLGEGSYGKVKEVLDSETLCRRAVKILKKKKLRRIPNGEANVKKEIQLLRRLRHKNVIQLVDVLYNEEKQKMYMVMEYCVCGMQEMLDSVPEKRFPVCQAHGYFCILIDGLEYLHSQGIVHKDIKPGNLLLTTGGTLKISDLGVAEALHPFAADDTCRTSQGSPAFQPPEIANGLDTFSGFKVDIWSAGVTLYNITTGLYPFEGDNIYKLFENIGKGSYAIPGDCGPPLSDLLKGMLEYEPAKRFSIRQIRQHSWFRKKHPPAEAPVPIPPSPDTKDRWRSMTVVPYLEDLHGADEDEDLFDIEDDIIYTQDFTVPGQVPEEEASHNGQRRGLPKAVCMNGTEAAQLSTKSRAEGRAPNPARKACSASSKIRRLSACKQQ [Q159I] and MEVVDPQQLGMFTEGELMSVGMDTFIHRIDSTEVIYQPRRKRAKLIGKYLMGDLLGEGSYGKVKEVLDSETLCRRAVKILKKKKLRRIPNGEANVKKEIQLLRRLRHKNVIQLVDVLYNEEKQKMYMVMEYCVCGMQEMLDSVPEKRFPVCQAHGYFCNLIDGLEYLHSQGIVHKDIKPGNLLLTTGGTLKISDLGVAEALHPFAADDTCRTSQGSPAFQPPEIANGLDTFSGFKVDIWSAGVTLYNITTGLYPFEGDNIYKLFENIGKGSYAIPGDCGPPLSDLLKGMLEYEPAKRFSIRQIRQHSWFRKKHPPAEAPVPIPPSPDTKDRWRSMTVVPYLEDLHGADEDEDLFDIEDDIIYTQDFTVPGQVPEEEASHNGQRRGLPKAVCMNGTEAAQLSTKSRAEGRAPNPARKACSASSKIRRLSACKQQ [Q159N] are within error of each other in STK11 functional score: 0.332 ± 0.27 for the first, 0.806 ± 0.79 for the second.

Compared with MEVVDPQQLGMFTEGELMSVGMDTFIHRIDSTEVIYQPRRKRAKLIGKYLMGDLLGEGSYGKVKEVLDSETLCRRAVKILKKKKLRRIPNGEANVKKEIQLLRRLRHKNVIQLVDVLYNEEKQKMYMVMEYCVCGMQEMLDSVPEKRFPVCQAHGYFCKLIDGLEYLHSQGIVHKDIKPGNLLLTTGGTLKISDLGVAEALHPFAADDTCRTSQGSPAFQPPEIANGLDTFSGFKVDIWSAGVTLYNITTGLYPFEGDNIYKLFENIGKGSYAIPGDCGPPLSDLLKGMLEYEPAKRFSIRQIRQHSWFRKKHPPAEAPVPIPPSPDTKDRWRSMTVVPYLEDLHGADEDEDLFDIEDDIIYTQDFTVPGQVPEEEASHNGQRRGLPKAVCMNGTEAAQLSTKSRAEGRAPNPARKACSASSKIRRLSACKQQ [Q159K], MEVVDPQQLGMFTEGELMSVGMDTFIHRIDSTEVIYQPRRKRAKLIGKYLMGDLLGEGSYGKVKEVLDSETLCRRAVKILKKKKLRRIPNGEANVKKEIQLLRRLRHKNVIQLVDVLYNEEKQKMYMVMEYCVCGMQEMLDSVPEKRFPVCQAHGYFCGLIDGLEYLHSQGIVHKDIKPGNLLLTTGGTLKISDLGVAEALHPFAADDTCRTSQGSPAFQPPEIANGLDTFSGFKVDIWSAGVTLYNITTGLYPFEGDNIYKLFENIGKGSYAIPGDCGPPLSDLLKGMLEYEPAKRFSIRQIRQHSWFRKKHPPAEAPVPIPPSPDTKDRWRSMTVVPYLEDLHGADEDEDLFDIEDDIIYTQDFTVPGQVPEEEASHNGQRRGLPKAVCMNGTEAAQLSTKSRAEGRAPNPARKACSASSKIRRLSACKQQ [Q159G] is higher in STK11 functional score: 0.6 ± 0.18 for the first, 1.1 ± 0.15 for the second.

MEVVDPQQLGMFTEGELMSVGMDTFIHRIDSTEVIYQPRRKRAKLIGKYLMGDLLGEGSYGKVKEVLDSETLCRRAVKILKKKKLRRIPNGEANVKKEIQLLRRLRHKNVIQLVDVLYNEEKQKMYMVMEYCVCGMQEMLDSVPEKRFPVCQAHGYFCLLIDGLEYLHSQGIVHKDIKPGNLLLTTGGTLKISDLGVAEALHPFAADDTCRTSQGSPAFQPPEIANGLDTFSGFKVDIWSAGVTLYNITTGLYPFEGDNIYKLFENIGKGSYAIPGDCGPPLSDLLKGMLEYEPAKRFSIRQIRQHSWFRKKHPPAEAPVPIPPSPDTKDRWRSMTVVPYLEDLHGADEDEDLFDIEDDIIYTQDFTVPGQVPEEEASHNGQRRGLPKAVCMNGTEAAQLSTKSRAEGRAPNPARKACSASSKIRRLSACKQQ [Q159L] and MEVVDPQQLGMFTEGELMSVGMDTFIHRIDSTEVIYQPRRKRAKLIGKYLMGDLLGEGSYGKVKEVLDSETLCRRAVKILKKKKLRRIPNGEANVKKEIQLLRRLRHKNVIQLVDVLYNEEKQKMYMVMEYCVCGMQEMLDSVPEKRFPVCQAHGYFCDLIDGLEYLHSQGIVHKDIKPGNLLLTTGGTLKISDLGVAEALHPFAADDTCRTSQGSPAFQPPEIANGLDTFSGFKVDIWSAGVTLYNITTGLYPFEGDNIYKLFENIGKGSYAIPGDCGPPLSDLLKGMLEYEPAKRFSIRQIRQHSWFRKKHPPAEAPVPIPPSPDTKDRWRSMTVVPYLEDLHGADEDEDLFDIEDDIIYTQDFTVPGQVPEEEASHNGQRRGLPKAVCMNGTEAAQLSTKSRAEGRAPNPARKACSASSKIRRLSACKQQ [Q159D] are within error of each other in STK11 functional score: 0.623 ± 0.11 for the first, 1.12 ± 0.46 for the second.

MEVVDPQQLGMFTEGELMSVGMDTFIHRIDSTEVIYQPRRKRAKLIGKYLMGDLLGEGSYGKVKEVLDSETLCRRAVKILKKKKLRRIPNGEANVKKEIQLLRRLRHKNVIQLVDVLYNEEKQKMYMVMEYCVCGMQEMLDSVPEKRFPVCQAHGYFCALIDGLEYLHSQGIVHKDIKPGNLLLTTGGTLKISDLGVAEALHPFAADDTCRTSQGSPAFQPPEIANGLDTFSGFKVDIWSAGVTLYNITTGLYPFEGDNIYKLFENIGKGSYAIPGDCGPPLSDLLKGMLEYEPAKRFSIRQIRQHSWFRKKHPPAEAPVPIPPSPDTKDRWRSMTVVPYLEDLHGADEDEDLFDIEDDIIYTQDFTVPGQVPEEEASHNGQRRGLPKAVCMNGTEAAQLSTKSRAEGRAPNPARKACSASSKIRRLSACKQQ [Q159A] and MEVVDPQQLGMFTEGELMSVGMDTFIHRIDSTEVIYQPRRKRAKLIGKYLMGDLLGEGSYGKVKEVLDSETLCRRAVKILKKKKLRRIPNGEANVKKEIQLLRRLRHKNVIQLVDVLYNEEKQKMYMVMEYCVCGMQEMLDSVPEKRFPVCQAHGYFCELIDGLEYLHSQGIVHKDIKPGNLLLTTGGTLKISDLGVAEALHPFAADDTCRTSQGSPAFQPPEIANGLDTFSGFKVDIWSAGVTLYNITTGLYPFEGDNIYKLFENIGKGSYAIPGDCGPPLSDLLKGMLEYEPAKRFSIRQIRQHSWFRKKHPPAEAPVPIPPSPDTKDRWRSMTVVPYLEDLHGADEDEDLFDIEDDIIYTQDFTVPGQVPEEEASHNGQRRGLPKAVCMNGTEAAQLSTKSRAEGRAPNPARKACSASSKIRRLSACKQQ [Q159E] are within error of each other in STK11 functional score: 1.13 ± 0.21 for the first, 1.25 ± 0.55 for the second.

MEVVDPQQLGMFTEGELMSVGMDTFIHRIDSTEVIYQPRRKRAKLIGKYLMGDLLGEGSYGKVKEVLDSETLCRRAVKILKKKKLRRIPNGEANVKKEIQLLRRLRHKNVIQLVDVLYNEEKQKMYMVMEYCVCGMQEMLDSVPEKRFPVCQAHGYFCCLIDGLEYLHSQGIVHKDIKPGNLLLTTGGTLKISDLGVAEALHPFAADDTCRTSQGSPAFQPPEIANGLDTFSGFKVDIWSAGVTLYNITTGLYPFEGDNIYKLFENIGKGSYAIPGDCGPPLSDLLKGMLEYEPAKRFSIRQIRQHSWFRKKHPPAEAPVPIPPSPDTKDRWRSMTVVPYLEDLHGADEDEDLFDIEDDIIYTQDFTVPGQVPEEEASHNGQRRGLPKAVCMNGTEAAQLSTKSRAEGRAPNPARKACSASSKIRRLSACKQQ [Q159C] and MEVVDPQQLGMFTEGELMSVGMDTFIHRIDSTEVIYQPRRKRAKLIGKYLMGDLLGEGSYGKVKEVLDSETLCRRAVKILKKKKLRRIPNGEANVKKEIQLLRRLRHKNVIQLVDVLYNEEKQKMYMVMEYCVCGMQEMLDSVPEKRFPVCQAHGYFCRLIDGLEYLHSQGIVHKDIKPGNLLLTTGGTLKISDLGVAEALHPFAADDTCRTSQGSPAFQPPEIANGLDTFSGFKVDIWSAGVTLYNITTGLYPFEGDNIYKLFENIGKGSYAIPGDCGPPLSDLLKGMLEYEPAKRFSIRQIRQHSWFRKKHPPAEAPVPIPPSPDTKDRWRSMTVVPYLEDLHGADEDEDLFDIEDDIIYTQDFTVPGQVPEEEASHNGQRRGLPKAVCMNGTEAAQLSTKSRAEGRAPNPARKACSASSKIRRLSACKQQ [Q159R] are within error of each other in STK11 functional score: 0.889 ± 0.35 for the first, 1.03 ± 0.33 for the second.

Compared with MEVVDPQQLGMFTEGELMSVGMDTFIHRIDSTEVIYQPRRKRAKLIGKYLMGDLLGEGSYGKVKEVLDSETLCRRAVKILKKKKLRRIPNGEANVKKEIQLLRRLRHKNVIQLVDVLYNEEKQKMYMVMEYCVCGMQEMLDSVPEKRFPVCQAHGYFCPLIDGLEYLHSQGIVHKDIKPGNLLLTTGGTLKISDLGVAEALHPFAADDTCRTSQGSPAFQPPEIANGLDTFSGFKVDIWSAGVTLYNITTGLYPFEGDNIYKLFENIGKGSYAIPGDCGPPLSDLLKGMLEYEPAKRFSIRQIRQHSWFRKKHPPAEAPVPIPPSPDTKDRWRSMTVVPYLEDLHGADEDEDLFDIEDDIIYTQDFTVPGQVPEEEASHNGQRRGLPKAVCMNGTEAAQLSTKSRAEGRAPNPARKACSASSKIRRLSACKQQ [Q159P], MEVVDPQQLGMFTEGELMSVGMDTFIHRIDSTEVIYQPRRKRAKLIGKYLMGDLLGEGSYGKVKEVLDSETLCRRAVKILKKKKLRRIPNGEANVKKEIQLLRRLRHKNVIQLVDVLYNEEKQKMYMVMEYCVCGMQEMLDSVPEKRFPVCQAHGYFWQLIDGLEYLHSQGIVHKDIKPGNLLLTTGGTLKISDLGVAEALHPFAADDTCRTSQGSPAFQPPEIANGLDTFSGFKVDIWSAGVTLYNITTGLYPFEGDNIYKLFENIGKGSYAIPGDCGPPLSDLLKGMLEYEPAKRFSIRQIRQHSWFRKKHPPAEAPVPIPPSPDTKDRWRSMTVVPYLEDLHGADEDEDLFDIEDDIIYTQDFTVPGQVPEEEASHNGQRRGLPKAVCMNGTEAAQLSTKSRAEGRAPNPARKACSASSKIRRLSACKQQ [C158W] is lower in STK11 functional score: 0.757 ± 0.17 for the first, 0.384 ± 0.11 for the second.
